Data taken from PMC3159919 (Structure (London, England : 1993), 2011).

Experiments:
[1] = molecular target: the molecule itself; experiment: pulse gradient diffusion NMR + NMR spin relaxation
[2] = molecular target: the molecule itself; experiment: NMR residual dipolar couplings

Protein | stoichiometry N [1] | binding result [2]
wild type CCL5 (RANTES) (natural protein, UniProt P13501 24-91, looked up) SPYSSDTTPCCFAYIARPLPRAHIKEYFYTSGKCSNPAVVFVTRKNRQVCANPEKKWVREYINSLEMS | 4 | 
CCL5 E66S mutant (natural protein, UniProt P13501 24-91, looked up) SPYSSDTTPCCFAYIARPLPRAHIKEYFYTSGKCSNPAVVFVTRKNRQVCANPEKKWVREYINSLSMS |  | binds
